The results in this text go back to US20240279344A1 (CDR LIFE, published 2024).

The chains are these.
B1: M1116 (bispecific antibody, V domains shown)
VH: EVQLLESGGGSVQPGGSLRLSCTVSGFSLSNYAMSWVRQAPGKGLEWIGIVSSGGTTYYASWAKGRFTISKDTSKNTVYLQMNSLRAEDTASYYCAKDLYYGPTTYSAANLWGQGTSVTVSS
VL: SYELTQPPSVSVSPGQTASITCTADTLSRSYASWYQQKPGQSPVLVIYRDTSRPSGIPERFSGSNSGNTATLTISGTQAMDEADYYCATRPSSGSNFQLFGGGTKLTVL
notes: Variant of humanized M0763; tested in SPR as anti-CD3 Fab x anti-MAGE-A4 scFv bispecific
B2: M1041 (bispecific antibody, V domains shown)
VH: ESQVLESGGGSVQPGGSLRLSCTVSGFSLSNYAMSWVRQAPGKGLEYIGIVSSGGTTYYASWAKGRFTISKDTSKNTVYLQMNSLRAEDTASYYCAKDLYYGPTTYSAFNLWGQGTSVTVSS
VL: SYELTQPPSVSVSPGQTASITCTADTLSRSYASWYQQKPGQSPVLVIYRDTSRPSGIPERFSGSNSGNTATLTISGTQAMDEADYYCATRPSSGSNFQLFGGGTKLTVL
notes: as for B1
B3: M1100 (bispecific antibody, V domains shown)
VH: EVQLLESGGGSVQPGGSLRLSCTVSGFSLSNYAMSWVRQAPGKGLEWIGIVSSGGTTYYASWAKGRFTISKDTSKNTVYLQMNSLRAEDTASYYCAKDLYYGPTTYHDLNLWGQGTSVTVSS
VL: SYELTQPPSVSVSPGQTASITCTADTLSRSYASWYQQKPGQSPVLVIYRDTSRPSGIPERFSGSNSGNTATLTISGTQAMDEADYYCATRPSSGSNFQLFGGGTKLTVL
notes: as for B1
B4: M1036 (bispecific antibody, V domains shown)
VH: ESQVLESGGGSVQPGGSLRLSCTVSGFSLSNYAMSWVRQAPGKGLEYIGIVSSGGTTYYASWAKGRFTISKDTSKNTVYLQMNSLRAEDTASYYCAKDLYYGPTTQSAFNLWGQGTSVTVSS
VL: SYELTQPPSVSVSPGQTASITCTADTLSRSYASWYQQKPGQSPVLVIYRDTSRPSGIPERFSGSNSGNTATLTISGTQAMDEADYYCATSDGSGSNFQLFGGGTKLTVL
notes: as for B1
B5: M1097 (bispecific antibody, V domains shown)
VH: EVQLLESGGGSVQPGGSLRLSCTVSGFSLSNYAMSWVRQAPGKGLEWIGIVSSGGTTYYASWAKGRFTISKDTSKNTVYLQMNSLRAEDTASYYCAKNVYYGPTTYSAFNLWGQGTSVTVSS
VL: SYELTQPPSVSVSPGQTASITCTADTLSRSYASWYQQKPGQSPVLVIYRDTSRPSGIPERFSGSNSGNTATLTISGTQAMDEADYYCATRPSSGSNFQLFGGGTKLTVL
notes: as for B1
B6: M1038 (bispecific antibody, V domains shown)
VH: ESQVLESGGGSVQPGGSLRLSCTVSGFSLSNYAMSWVRQAPGKGLEYIGIVSSGGTTYYASWAKGRFTISKDTSKNTVYLQMNSLRAEDTASYYCAKNVYYGPTTYSAFNLWGQGTSVTVSS
VL: SYELTQPPSVSVSPGQTASITCTADTLSRSYASWYQQKPGQSPVLVIYRDTSRPSGIPERFSGSNSGNTATLTISGTQAMDEADYYCATSDGSGSNFQLFGGGTKLTVL
notes: as for B1
B7: M1090 (bispecific antibody, V domains shown)
VH: EVQLLESGGGSVQPGGSLRLSCTVSGFSLSNYAMSWVRQAPGKGLEWIGIVSSGGTTYYASWAKGRFTISKDTSKNTVYLQMNSLRAEDTASYYCAKDLYYGPTTYSAFNLWGQGTSVTVSS
VL: SYELTQPPSVSVSPGQTASITCTADTLSRSYASWYQQKPGQSPVLVIYRDTSRPSGIPERFSGSNSGNTATLTISGTQAMDEADYYCATKPSSGSNFQLFGGGTKLTVL
notes: as for B1
B8: M1099 (bispecific antibody, V domains shown)
VH: EVQLLESGGGSVQPGGSLRLSCTVSGFSLSNYAMSWVRQAPGKGLEWIGIVSSGGTTYYASWAKGRFTISKDTSKNTVYLQMNSLRAEDTASYYCAKNVYYGPTTQSAFNLWGQGTSVTVSS
VL: SYELTQPPSVSVSPGQTASITCTADTLSRSYASWYQQKPGQSPVLVIYRDTSRPSGIPERFSGSNSGNTATLTISGTQAMDEADYYCATSDGSGSNFQLFGGGTKLTVL
notes: as for B1
B9: M1086 (bispecific antibody, V domains shown)
VH: EVQLLESGGGSVQPGGSLRLSCTVSGFSLSNYAMSWVRQAPGKGLEWIGIVSSGGTTYYASWAKGRFTISKDTSKNTVYLQMNSLRAEDTASYYCAKDLYYGPTTYSAFNLWGQGTSVTVSS
VL: SYELTQPPSVSVSPGQTASITCTADTLSRSYASWYQQKPGQSPVLVIYRDTSRPSGIPERFSGSNSGNTATLTISGTQAMDEADYYCATSPSSGSNFQLFGGGTKLTVL
notes: as for B1
B10: M1108 (bispecific antibody, V domains shown)
VH: EVQLLESGGGSVQPGGSLRLSCTVSGFSLSNYAMSWVRQAPGKGLEWIGIVSSGGTTYYASWAKGRFTISKDTSKNTVYLQMNSLRAEDTASYYCAKDLYAGPTTYSAFNLWGQGTSVTVSS
VL: SYELTQPPSVSVSPGQTASITCTADTLSRSYASWYQQKPGQSPVLVIYRDTSRPSGIPERFSGSNSGNTATLTISGTQAMDEADYYCATRPSSGSNFQLFGGGTKLTVL
notes: as for B1
B11: M1087 (bispecific antibody, V domains shown)
VH: EVQLLESGGGSVQPGGSLRLSCTVSGFSLSNYAMSWVRQAPGKGLEWIGIVSSGGTTYYASWAKGRFTISKDTSKNTVYLQMNSLRAEDTASYYCAKDLYYGPTTYSAFNLWGQGTSVTVSS
VL: SYELTQPPSVSVSPGQTASITCTADTLSRSYASWYQQKPGQSPVLVIYRDTSRPSGIPERFSGSNSGNTATLTISGTQAMDEADYYCATRDSSGSNFQLFGGGTKLTVL
notes: as for B1
B12: M1105 (bispecific antibody, V domains shown)
VH: EVQLLESGGGSVQPGGSLRLSCTVSGFSLSNYAMSWVRQAPGKGLEWIGIVSSGGTTYYASWAKGRFTISKDTSKNTVYLQMNSLRAEDTASYYCAKALYYGPTTYSAFNLWGQGTSVTVSS
VL: SYELTQPPSVSVSPGQTASITCTADTLSRSYASWYQQKPGQSPVLVIYRDTSRPSGIPERFSGSNSGNTATLTISGTQAMDEADYYCATRPSSGSNFQLFGGGTKLTVL
notes: as for B1
B13: M1037 (bispecific antibody, V domains shown)
VH: ESQVLESGGGSVQPGGSLRLSCTVSGFSLSNYAMSWVRQAPGKGLEYIGIVSSGGTTYYASWAKGRFTISKDTSKNTVYLQMNSLRAEDTASYYCAKDLYYGPTTYHDLNLWGQGTSVTVSS
VL: SYELTQPPSVSVSPGQTASITCTADTLSRSYASWYQQKPGQSPVLVIYRDTSRPSGIPERFSGSNSGNTATLTISGTQAMDEADYYCATSDGSGSNFQLFGGGTKLTVL
notes: as for B1
B14: M1101 (bispecific antibody, V domains shown)
VH: EVQLLESGGGSVQPGGSLRLSCTVSGFSLSNYAMSWVRQAPGKGLEWIGIVSSGGRKRYASWAKGRFTISKDTSKNTVYLQMNSLRAEDTASYYCAKDLYYGPTTYSAFNLWGQGTSVTVSS
VL: SYELTQPPSVSVSPGQTASITCTADTLSRSYASWYQQKPGQSPVLVIYRDTSRPSGIPERFSGSNSGNTATLTISGTQAMDEADYYCATRPSSGSNFQLFGGGTKLTVL
notes: as for B1
B15: M1096 (bispecific antibody, V domains shown)
VH: EVQLLESGGGSVQPGGSLRLSCTVSGFSLSNYAMSWVRQAPGKGLEWIGIVSSGGTTYYASWAKGRFTISKDTSKNTVYLQMNSLRAEDTASYYCAKDLYYGPTTQSAFNLWGQGTSVTVSS
VL: SYELTQPPSVSVSPGQTASITCTADTLSRSYASWYQQKPGQSPVLVIYRDTSRPSGIPERFSGSNSGNTATLTISGTQAMDEADYYCATRPSSGSNFQLFGGGTKLTVL
notes: as for B1
B16: M1098 (bispecific antibody, V domains shown)
VH: EVQLLESGGGSVQPGGSLRLSCTVSGFSLSNYAMSWVRQAPGKGLEWIGIVSSGGTTYYASWAKGRFTISKDTSKNTVYLQMNSLRAEDTASYYCAKNVYYGPTTQSAFNLWGQGTSVTVSS
VL: SYELTQPPSVSVSPGQTASITCTADTLSRSYASWYQQKPGQSPVLVIYRDTSRPSGIPERFSGSNSGNTATLTISGTQAMDEADYYCATRPSSGSNFQLFGGGTKLTVL
notes: as for B1
B17: M1107 (bispecific antibody, V domains shown)
VH: EVQLLESGGGSVQPGGSLRLSCTVSGFSLSNYAMSWVRQAPGKGLEWIGIVSSGGTTYYASWAKGRFTISKDTSKNTVYLQMNSLRAEDTASYYCAKDLAYGPTTYSAFNLWGQGTSVTVSS
VL: SYELTQPPSVSVSPGQTASITCTADTLSRSYASWYQQKPGQSPVLVIYRDTSRPSGIPERFSGSNSGNTATLTISGTQAMDEADYYCATRPSSGSNFQLFGGGTKLTVL
notes: as for B1
B18: M1040 (bispecific antibody, V domains shown)
VH: ESQVLESGGGSVQPGGSLRLSCTVSGFSLSNYAMSWVRQAPGKGLEYIGIVSSGGTTYYASWAKGRFTISKDTSKNTVYLQMNSLRAEDTASYYCAKDLYYGPTTYHQLNLWGQGTSVTVSS
VL: SYELTQPPSVSVSPGQTASITCTADTLSRSYASWYQQKPGQSPVLVIYRDTSRPSGIPERFSGSNSGNTATLTISGTQAMDEADYYCATSDGSGSNFQLFGGGTKLTVL
notes: as for B1
B19: M1089 (bispecific antibody, V domains shown)
VH: EVQLLESGGGSVQPGGSLRLSCTVSGFSLSNYAMSWVRQAPGKGLEWIGIVSSGGTTYYASWAKGRFTISKDTSKNTVYLQMNSLRAEDTASYYCAKDLYYGPTTYSAFNLWGQGTSVTVSS
VL: SYELTQPPSVSVSPGQTASITCTADTLSRSYASWYQQKPGQSPVLVIYRDTSRPSGIPERFSGSNSGNTATLTISGTQAMDEADYYCATRPASGSNFQLFGGGTKLTVL
notes: as for B1
B20: M1088 (bispecific antibody, V domains shown)
VH: EVQLLESGGGSVQPGGSLRLSCTVSGFSLSNYAMSWVRQAPGKGLEWIGIVSSGGTTYYASWAKGRFTISKDTSKNTVYLQMNSLRAEDTASYYCAKDLYYGPTTYSAFNLWGQGTSVTVSS
VL: SYELTQPPSVSVSPGQTASITCTADTLSRSYASWYQQKPGQSPVLVIYRDTSRPSGIPERFSGSNSGNTATLTISGTQAMDEADYYCATRPGSGSNFQLFGGGTKLTVL
notes: as for B1
B21: M1051 (bispecific antibody, V domains shown)
VH: ESQVLESGGGSVQPGGSLRLSCTVSGFSLSNYAMSWVRQAPGKGLEYIGIVSSGGRKRYASWAKGRFTISKDTSKNTVYLQMNSLRAEDTASYYCAKDLYYGPTTYSAFNLWGQGTSVTVSS
VL: SYELTQPPSVSVSPGQTASITCTADTLSRSYASWYQQKPGQSPVLVIYRDTSRPSGIPERFSGSNSGNTATLTISGTQAMDEADYYCATSDGSGSNFQLFGGGTKLTVL
notes: as for B1

Values joined by “and” are separate entries in the source; they are usually repeats but may differ in a detail not shown here. Equal values may be shown once.

As a reminder, the Kd is the free concentration of one partner at which half of the binding sites on the other are occupied at equilibrium, for simple one-to-one binding.

The assay concerns the target T1, HLA-A2/MAGE-A4 complex, recombinant (HLA-A*02:01 extracellular domain, human b2m, MAGE-A4 peptide 230-239 …) (human, UniProt P04439 25-299 at identity 0.94); P61769 21-119).
T1 construct: also called MAGE-A4 pMHC; MAGE-A4/HLA-A2 complex
Nature of the assay: SPR, monovalent. Background: Surface plasmon resonance follows binding to a sensor surface in real time, without labels.
Consider B1, for which the Kd was found to be 3.88 nM.
For B2, the Kd amounted to 0.24 nM.
The same measure for B3: 0.66 nM.
The same measure for B4: 4.9 nM.
In the case of B5 it was 0.99 nM; in that of B6, 3.6 nM.
On to B7, for which the Kd was 1.8 nM.
In the case of B8 it was 2.13 nM.
As for B9, the Kd stood at 7.02 nM.
In the case of B10 it was 19 nM; in that of B11, 0.82 nM.
B12: the Kd was found to be 4.12 nM.
In the case of B13 it was 0.4 nM.
In the case of B14 it was 1.69 nM; in that of B15, 3.23 nM; in that of B16, 1.73 nM.
As to B17, the Kd came to 1.45 nM.
In the case of B18 it was 0.45 nM; in that of B19, 1.34 nM and 0.79 nM.
For the molecule B20, the Kd came to 3.9 nM.
B21: the Kd was determined as 5 nM.
